According to US20230312744A1, “Modulatory Substance of Tumor Immune Microenvironment, and Preventive, Diagnostic and/or Therapeutic Utilization of the Same” (The University Of Tokyo, priority 2020, published 2023):

Legend:
[1] = tested on: PMN-MDSCs in the TIME; assay: Flow cytometry of tumor-infiltrating cells from SL4 tumors (PMN-MDSCs in CD45+ cells); assay type: in vivo; settings: 55F3 200 μg/mouse i.p., Day 13 after transplantation, ratio of PMN-MDSCs to CD45+ cells, vs control IgG
Description: In FIG. 13(a), SL4 cells (1×10^5 cells) were subcutaneously transplanted into C57BL/6 mice. The monoclonal antibody (55F3) (n=5) reacting against TCTP or control IgG (n=6) was intraperitoneally administered to the mice, every other day from one day after the transplantation (200 μg/mouse). The tumor volume was measured over time. In FIG. 13(b), on Day 13 after the transplantation, single cell suspensions were prepared from tumors, and were then subjected to a flow cytometry analysis (n=5). […] In FIG. 13(c), SL4 cells (1×10^5 cells) were subcutaneously transplanted into C57BL/6 mice (n=6). After the transplantation, DHA (50 mg/kg) was intraperitoneally […] into the mice every day. The tumor volume was measured over time. […] The tumor volume was measured over time. […] In FIG. 13(f), the amount of TCTP in sera derived from healthy subjects (people who are not affected with cancer) (n=5) and colorectal cancer patients (n=14) was quantified by immunoblotting. […] In FIG. 13 (g), (right view) the relative staining intensity by the anti-TCTP antibody was semi-quantified, and the staining intensity of the colorectal cancer tissues was compared with the staining intensity of the normal large intestinal tissues (n=45). […]
Tumor-infiltrating cells were recovered after subcutaneous transplantation of a tumor into mice, and were then analyzed by flow cytometry. […]

[2] = tested on: SL4 tumors; assay: Proliferation assay of subcutaneously transplanted SL4 tumor in C57BL/6 mice (tumor volume); assay type: in vivo; settings: 200 μg/mouse intraperitoneally every other day from Day 1 after transplantation, vs control IgG, FIG. 13(a)
Description: In FIG. 13(a), SL4 cells (1×10^5 cells) were subcutaneously transplanted into C57BL/6 mice. The monoclonal antibody (55F3) (n=5) reacting against TCTP or control IgG (n=6) was intraperitoneally administered to the mice, every other day from one day after the transplantation (200 μg/mouse). The tumor volume was measured over time. In FIG. 13(b), on Day 13 after the transplantation, single cell suspensions were prepared from tumors, and were then subjected to a flow cytometry analysis (n=5). […] In FIG. 13(c), SL4 cells (1×10^5 cells) were subcutaneously transplanted into C57BL/6 mice (n=6). After the transplantation, DHA (50 mg/kg) was intraperitoneally […] into the mice every day. The tumor volume was measured over time. In FIG. 13(d), SL4 cells (1×10^5 cells) were subcutaneously transplanted into C57BL/6 mice (n=6). […] The tumor volume was measured over time. […] In FIG. 13(f), the amount of TCTP in sera derived from healthy subjects (people who are not affected with cancer) (n=5) and colorectal cancer patients (n=14) was quantified by immunoblotting. […] In FIG. 13 (g), (right view) the relative staining intensity by the anti-TCTP antibody was semi-quantified, and the staining intensity of the colorectal cancer tissues was compared with the staining intensity of the normal large intestinal tissues (n=45). […]

B1: 55F3: Mouse monoclonal antibody against human TCTP peptide SEQ ID NO: 25; CDRs SEQ ID NO: 1-6, VH SEQ ID NO: 19, VL SEQ ID NO: 22 (antibody, listed as Mus musculus)
VH: MRVLILLWLFTAFPGILSDVQLQESGPGLVKPSQSLSLTCTATGYSIASDYAWNWIRQFPGNKLEWMGYINYSGSTGYNPSLKSRISITRDTSKNQFFLQLNSVTTEDTATYYCARFEAGYWGQGTTLTVSSAKTTPPSVYPLAPGSAAQTNSMVTLGCLVKGYFPEPVT
VL: MDMRTPAQFLGILLLWFPGIKCDIKMTQSPSSMSASLGERVTITCKASQDINRYLSWFQQKPGKSPKTLIYRANRLVDGVPSRFSGSGSGQDYSLTISSLEYGDMGIYYCLQYNEFPLTFGAGTKLELKRADAAPTVSIFPPSSEQLTSGGASVVCFLN
amount of PMN-MDSCs in the TIME [1]: decreased | proliferation speed of SL4 tumor cells (tumor volume) [2]: decreased
